Results on 38 variants are retold here after the RNAGym collection of RNA variant scans (doi:10.7554/elife.80360).

The chains are these.
B1: Hairpin Ribozyme (parent)
chain: GUCCUCUUUCACGUGCGCGUGAAAGAGAGAAGUGAACCAGAGAAACACACGUUGUGGUAUAUUACCUGGUA

In the data set the parent is B1. Put plainly: self-cleavage, relative activity (ratio to wild type); higher = more cleavage; co-transcriptional.
For the variant GUCCUCUUUGACGUGCGCGUGAAAGAGAGAAGAGAACCAGAGAAACACACGUUGUGGUAUAUUACCUGGUA [C10G U33A], the self-cleavage worked out at 0.138.

GUCCUCUUUGACGUGCGCGUGAAAGAGAGAAGUGAACAAGAGAAACACACGUUGUGGUAUAUUACCUGGUA [C10G C38A]: the self-cleavage stood at 0.168.

Turning to GUCCUCUUUUACGUGCGCGUGAAAGAGAGAAGUGAACCAGAGAAACACACGUUGUGGUAUAUUACCUGGUA [C10U], the self-cleavage was determined as 0.775.

Regarding GUCCUCUUUGACGUGCGCGUGAAAGAGAGAAGUGAACCAGAGAAACACACGUGGUGGUAUAUUACCUGGUA [C10G U53G], the self-cleavage was determined as 0.632.

Turning to GUCCUCUUUGACGUGCGCGUGAAAGAGAGAAGUGAACCAGAGAAACACACGUUGUGGUAUAUUAUCUGGUA [C10G C65U], the self-cleavage came to 0.307.

Turning to GUCCUCUUUGACGUGCGCGUGAAAGAGAGAAGUGAACCAGAGAAACACACGUUGUGGUAUAUUACCUCGUA [C10G G68C], the self-cleavage is 0.199.

As to GUCCUCUUUGAUGUGCGCGUGAAAGAGAGAAGUGAACCAGAGAAACACACGUUGUGGUAUAUUACCUGGUA [C10G C12U], the self-cleavage was 0.503.

For GUCCUCUUUGAGGUGCGCGUGAAAGAGAGAAGUGAACCAGAGAAACACACGUUGUGGUAUAUUACCUGGUA [C10G C12G], the self-cleavage is 0.477.

Turning to GUCCUCUUUGACGUGCGCGUGAAACAGAGAAGUGAACCAGAGAAACACACGUUGUGGUAUAUUACCUGGUA [C10G G25C], the self-cleavage was determined as 0.358.

As to GUCCUCUUUGACGUGCGCGUGAAAGAGAGAAGUGAACCAGAGAAACACACGUUGCGGUAUAUUACCUGGUA [C10G U55C], the self-cleavage was 0.16.

As to GUCCUCUUUGACGUGCGCUUGAAAGAGAGAAGUGAACCAGAGAAACACACGUUGUGGUAUAUUACCUGGUA [C10G G19U], the self-cleavage was 0.507.

Regarding GUCCUCUUUGACGUGCGCAUGAAAGAGAGAAGUGAACCAGAGAAACACACGUUGUGGUAUAUUACCUGGUA [C10G G19A], the self-cleavage stood at 0.64.

For GUCCUCUUUGACGUGCGCGUGAAAGAGAGAAGUGAACCAGAGAAACACACGAUGUGGUAUAUUACCUGGUA [C10G U52A], the self-cleavage turned out to be 0.705.

Turning to GUCCUCUUUGACGUGCGCGUGAAAGAGAGAAGUGAACCAGAGAAACACACGCUGUGGUAUAUUACCUGGUA [C10G U52C], the self-cleavage stood at 0.536.

On to GUCCUCUUUGACGUGCGCGUGAAAGAUAGAAGUGAACCAGAGAAACACACGUUGUGGUAUAUUACCUGGUA [C10G G27U], for which the self-cleavage amounted to 0.195.

Consider GUCCUCUUUGACGUGCGCGUGAAAGAGAGAAGUGAACCAGAGAAACACACGUUGUGGUAUAUUACCUGCUA [C10G G69C], for which the self-cleavage worked out at 0.23.

Consider GUCCUCUUUGACGUGCGCGUGAAAGAGAGAAGUGAACCAGAGAAACACACGUUGUGGUAUAUUACAUGGUA [C10G C66A], for which the self-cleavage worked out at 0.0906.

In the case of GUCCUCUUUGACGUGCGCGUGAAAGAGAGAAGUGAACCAGAGAAACACACGUUGUGUUAUAUUACCUGGUA [C10G G57U], the self-cleavage stood at 0.243.

With GUCCUCUUUGACGUGCGCGUGAAAGAGAGAAAUGAACCAGAGAAACACACGUUGUGGUAUAUUACCUGGUA [C10G G32A], the self-cleavage came to 0.163.

As to GUCCUCUUUGACGUGCGCGUGAAAGAGAGAACUGAACCAGAGAAACACACGUUGUGGUAUAUUACCUGGUA [C10G G32C], the self-cleavage turned out to be 0.207.

With GUCCUCUUUGACGUGCGCGUGAAAGAGAGAAGUGAACCAGAGAAACAUACGUUGUGGUAUAUUACCUGGUA [C10G C48U], the self-cleavage stood at 0.168.

As to GUCCUCUUUGACGUGGGCGUGAAAGAGAGAAGUGAACCAGAGAAACACACGUUGUGGUAUAUUACCUGGUA [C10G C16G], the self-cleavage was found to be 0.559.

With GUCCUCUUUUUCGUGCGCGUGAAAGAGAGAAGUGAACCAGAGAAACACACGUUGUGGUAUAUUACCUGGUA [C10U A11U], the self-cleavage came to 0.577.

As to GUCCUCUUUGACGUGCGCGUGAAAGAGAGAAGUGAACCAUAGAAACACACGUUGUGGUAUAUUACCUGGUA [C10G G40U], the self-cleavage was 0.161.

Regarding GUCCUCUUUGACGUGCGCGUGAAAGAGAGAAGUGAACCAAAGAAACACACGUUGUGGUAUAUUACCUGGUA [C10G G40A], the self-cleavage stood at 0.194.

In the case of GUCCUCUUUGACGUCCGCGUGAAAGAGAGAAGUGAACCAGAGAAACACACGUUGUGGUAUAUUACCUGGUA [C10G G15C], the self-cleavage came to 0.962.

Take GUCCUCUUUGACGUGCGUGUGAAAGAGAGAAGUGAACCAGAGAAACACACGUUGUGGUAUAUUACCUGGUA [C10G C18U]: the self-cleavage worked out at 0.842.

Take GUCCUCUUUGACGUGCGCGUGAAAGAGAUAAGUGAACCAGAGAAACACACGUUGUGGUAUAUUACCUGGUA [C10G G29U]: the self-cleavage worked out at 0.136.

As to GUCCUCUUUGACGUGCGCGUGAAAGAGAGAAGUGAACCAGAGAAACACAUGUUGUGGUAUAUUACCUGGUA [C10G C50U], the self-cleavage is 0.344.

GUCCUCUUUGACGUGCGCGUGAAAGAGAGAAGUGAACCAGAGAAACACAGGUUGUGGUAUAUUACCUGGUA [C10G C50G]: the self-cleavage turned out to be 0.142.

In the case of GUCCUCUUUGACUUGCGCGUGAAAGAGAGAAGUGAACCAGAGAAACACACGUUGUGGUAUAUUACCUGGUA [C10G G13U], the self-cleavage came out at 0.528.

As for GUCCUCUUUGACGUGCGCGUGAAAGAGAGAAGUAAACCAGAGAAACACACGUUGUGGUAUAUUACCUGGUA [C10G G34A], the self-cleavage was 0.978.

For the variant GUCCUCUUUGACGUGCGCGUGAAAGAGAGAAGUGAACCAGAGAAACACACGUUUUGGUAUAUUACCUGGUA [C10G G54U], the self-cleavage worked out at 0.471.

On to GUCCUCUUUGACGUGCGCGUGAAAGAGAGAAGUGAACCAGAGAAACACACGUUGUGGGAUAUUACCUGGUA [C10G U58G], for which the self-cleavage turned out to be 0.441.

As to GUCCUCUUUGACGUGCGCGAGAAAGAGAGAAGUGAACCAGAGAAACACACGUUGUGGUAUAUUACCUGGUA [C10G U20A], the self-cleavage amounted to 0.484.

For the variant GUCCUCUUUGACGUGCGCGUGAAAGAGAGAAGUGAACCAGAAAAACACACGUUGUGGUAUAUUACCUGGUA [C10G G42A], the self-cleavage is 0.185.

Turning to GUCCUCUUUGACGUGCGCGUGAAAGAGAGAAGUGAACCAGAGAAAGACACGUUGUGGUAUAUUACCUGGUA [C10G C46G], the self-cleavage amounted to 0.162.

Take GUCCUCUUUGACGUGCGCGUGAAAGAGAGAAGUGAACCAGAGAAACACACGUUGUGGUAGAUUACCUGGUA [C10G U60G]: the self-cleavage worked out at 0.442.
